The record followed here is US20200325187A1 (Genentech, published 2020).

The target in assay [1] is T1, hVEGF-A (human, UniProt P15692-4 27-191, limits assumed).
T1 construct: also called human VEGF-A; WT
The assay is described as follows: SPR. In general terms: SPR reads the build-up and loss of mass on a sensor chip optically.

For assay [2], the target named is T2, PIGF-2 (human, UniProt P49763-3 19-170).
T2 construct: also called P1Gf-2; P1GF
T2 sequence (looked up): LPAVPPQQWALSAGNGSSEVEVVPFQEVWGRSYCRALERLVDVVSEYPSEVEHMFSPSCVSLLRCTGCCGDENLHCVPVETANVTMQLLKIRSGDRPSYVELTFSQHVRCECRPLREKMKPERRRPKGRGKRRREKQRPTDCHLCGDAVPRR
The assay is described as follows: competition ELISA: PIGF-2 coated, constant Flt-1 receptor, peptide titrated. On the technique in general: In an ELISA, binding on a coated surface is turned into a signal by an enzyme label.

Broadly, the Kd is a measure of binding affinity in units of concentration. Low readings indicate higher affinity, high ones lower affinity.

B1: VEGF_CKP9.54.90 (designed binder)
chain: GCNIMLPFWGCGRDFECLAGCVCQYYQSCG
Molecule B1 came in with a Kd in assay [1] of 0.4 nM. In assay [2], the binding result was “no binding (tested: 5 µM)”.
